Our source for the Kd values is patent US20230192768A1 (published 2023).

Where no end group is shown, it is not given here.

This assay addresses tumor necrosis factor alpha (TNF-α) protein. The assay is described as follows: ELISA: plate coated with 2 µg/ml TNF-α, FITC-labeled peptide titrated, HRP anti-FITC antibody, OD 410 nm, fitted in GraphPad Prism 5. Background: ELISA stands for enzyme-linked immunosorbent assay.

Sequence of tumor necrosis factor alpha (TNF-α) protein (chain, as listed by the source): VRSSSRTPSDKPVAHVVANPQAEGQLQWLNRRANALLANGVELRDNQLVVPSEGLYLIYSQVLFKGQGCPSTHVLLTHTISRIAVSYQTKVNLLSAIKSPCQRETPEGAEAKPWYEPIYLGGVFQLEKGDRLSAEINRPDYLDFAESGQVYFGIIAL

B1: peptide 632 (peptide)
peptide: HYIDFRW
modifications: also: FITC label, place not given here
notes: Chemically synthesized peptide; It was used in the ELISA as the FITC-labeled peptide; also called TNF-α antagonist peptide; antagonist peptide
The term Kd denotes the free concentration of one partner at which half of the binding sites on the other are occupied at equilibrium, for simple one-to-one binding. Turning to B1, the affinity, expressed as Kd, was 138 nM.
